Assay [1] has as its target RDPrHIV mutant glycoprotein (feline endogenous virus RD114).
Assay [2] deals with CH-296 retronectin fragment (Homo sapiens (Human)) (UniProt P02751).

With MLV viral core protease (enzyme), the infectivity of MLV pseudotyped vectors on TE671 cells in assay [1] is under 20 fold.
In assay [2], RD114/TR chimeric glycoprotein displayed a transduction efficiency of human CD34+ cells on retronectin-coated plates against no retronectin of 10 fold.

These data come from US8338168B2.
